Measurements published in the supplement of paper PMC7877785.
± gives the uncertainty stated by the source.

Experiment: self-splicing fitness, log relative to wild type (ln ratio); higher = more splicing; Tetrahymena group I intron in knt gene, E. coli kanamycin selection, DiMSum; sequences stand for … in CUCUCU…GGAGGGAAAAGUUAUCAGGCAUGCACCUGGUAGCUAGUCUUUAAACCAAUAGAUUGCAUCGGUUUAAAAGGCAAGACCGUCAAAUUGCGGGAAAGGGGUCAACAGCCGUUCAGUACCAAGUCUCAGGGGAAACUUUGAGAUGGCCUUGCAAAGGGUAUGGUAAUAAGCUGACGGACAUGGUCCUAACCACGCAGCCAAGUCCUAAGUCAACAGAUCUUCUGUUGAUAUGGAUGCAGUUCACAGACUAAAUGUCGGUCGGGGAAGAUGUAUUCUUCUCAUAAGAUAUAGUCGGACCUCUCCUUAAUGGGAGCUAGCGGAUGAAGUGAUGCAACACUGGAGCCGCUGGGAACUAAUUUGUAUGCGAAAGUAUAUUGAUUAGUUUUGGAGUACUCGUGGUCG
In short: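 Six replicate transformations of E. coli BL21(DE3) with a pET-22b(+) library were grown overnight at 37°C or 30°C. The library randomised all eight P1ex-region intron nucleotides, the intron lying in the knt kanamycin-resistance gene, and plates were LB agar with or without 25 μg/mL kanamycin plus 100 μg/mL carbenicillin, 50 μM IPTG and 0.2% rhamnose. Pooled colonies were amplicon-sequenced on an Illumina HiSeq 2500, and fitness is the DiMSum error-weighted combination of wild-type-normalised replicate fold changes, kanamycin versus none.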

Row | Sequence | self-splicing fitness (ln) (30 °C) | self-splicing fitness (ln) (37 °C)
1 | AAGUAGCAAUAUUACGUAAG | -2.48 ± 0.13 | -1.43 ± 0.14
2 | CCGCAGCAAUAUUACGGUCA | -3.47 ± 0.29 | -2.46 ± 0.3
3 | GCCCAGCAAUAUUACGAACU | -1.26 ± 0.14 | -1 ± 0.14
4 | UUCAAGCAAUAUUACGCAAC | – | -1.43 ± 0.47
5 | UUCAAGCAAUAUUACGCCAG | 0.732 ± 0.48 | 0.119 ± 0.33
6 | CCAUAGCAAUAUUACGUUCU | -3.64 ± 0.25 | -3.4 ± 0.32
7 | UAAAAGCAAUAUUACGAGUG | -0.615 ± 0.057 | 0.0674 ± 0.084
8 | AAUAAGCAAUAUUACGACGG | -2.35 ± 0.15 | -1.34 ± 0.19
9 | GGGGAGCAAUAUUACGCUUC | -3.28 ± 0.4 | -2.12 ± 0.49
10 | CUACAGCAAUAUUACGGGCC | – | -3.03 ± 0.47
11 | GGCGAGCAAUAUUACGGUUA | -1.07 ± 0.11 | 0.0284 ± 0.088
12 | AUGGAGCAAUAUUACGAAUG | -3.6 ± 0.34 | -2.35 ± 0.18
13 | ACGCAGCAAUAUUACGCGCC | -2.5 ± 0.15 | -3.01 ± 0.27
14 | UCGAAGCAAUAUUACGGUGC | -2.62 ± 0.25 | –
15 | CCCCAGCAAUAUUACGGGAU | -3.28 ± 0.12 | -2.48 ± 0.14
16 | AAUGAGCAAUAUUACGGAUU | -2.38 ± 0.15 | -1.04 ± 0.16
17 | UGAGAGCAAUAUUACGCUAG | -3.66 ± 0.47 | –
18 | ACAGAGCAAUAUUACGCGAA | -3.58 ± 0.25 | -1.21 ± 0.18
19 | CAUAAGCAAUAUUACGCGAG | -1.99 ± 0.097 | -1.39 ± 0.085
20 | CACGAGCAAUAUUACGAGUG | -3.34 ± 0.17 | -1.83 ± 0.18
21 | CAUUAGCAAUAUUACGAAUA | -2.12 ± 0.14 | -0.64 ± 0.13
22 | AGAUAGCAAUAUUACGUUAA | -2.88 ± 0.18 | -2.01 ± 0.18
23 | UGUGAGCAAUAUUACGUCCA | -0.973 ± 0.13 | -0.0412 ± 0.16
24 | CGAAAGCAAUAUUACGUAGC | -3.4 ± 0.29 | -2.39 ± 0.27
25 | UCUGAGCAAUAUUACGACUG | -3.15 ± 0.27 | -2.26 ± 0.28

Row | Sequence | self-splicing fitness (ln) (30 °C) | self-splicing fitness (ln) (37 °C)
26 | GGAGAGCAAUAUUACGGUCC | – | -1.17 ± 0.34
27 | GCACAGCAAUAUUACGACGG | -1.34 ± 0.098 | -0.832 ± 0.13
28 | GCUAAGCAAUAUUACGAAAC | -1.17 ± 0.14 | -0.452 ± 0.2
29 | GUCGAGCAAUAUUACGUUCC | -1.99 ± 0.24 | -0.593 ± 0.37
30 | CUGUAGCAAUAUUACGUUGA | -2.93 ± 0.2 | -2.43 ± 0.2
31 | UGUCAGCAAUAUUACGACAU | -3.964 ± 0.028 | -2.58 ± 0.04
32 | GGUAAGCAAUAUUACGUGUU | -1.4 ± 0.075 | -0.901 ± 0.083
33 | AAGUAGCAAUAUUACGCAUC | -3.84 ± 0.47 | -1.08 ± 0.23
34 | UACCAGCAAUAUUACGGAAU | -2.32 ± 0.093 | -1.5 ± 0.1
35 | CAAGAGCAAUAUUACGUGAA | -3.89 ± 0.22 | -2.75 ± 0.23
36 | CGAUAGCAAUAUUACGUGUC | -3.67 ± 0.2 | -2.64 ± 0.16
37 | ACGGAGCAAUAUUACGGUAG | – | -2.33 ± 0.31
38 | GGUUAGCAAUAUUACGGGGG | – | -2.37 ± 0.44
39 | CUGAAGCAAUAUUACGCGAU | -0.358 ± 0.071 | 0.0463 ± 0.086
40 | UCAAAGCAAUAUUACGUCUG | -1.05 ± 0.076 | -0.306 ± 0.087
41 | AACGAGCAAUAUUACGGGGC | -4.03 ± 0.27 | -3.46 ± 0.35
42 | GGGUAGCAAUAUUACGGUCG | -0.207 ± 0.12 | -0.642 ± 0.096
43 | CAAAAGCAAUAUUACGCGUU | -3.91 ± 0.17 | -2.74 ± 0.13
44 | CGCGAGCAAUAUUACGCAGC | -3.62 ± 0.46 | -1.99 ± 0.34
45 | AUUCAGCAAUAUUACGUGAU | -0.92 ± 0.061 | -0.187 ± 0.078
46 | UCUAAGCAAUAUUACGACGC | -0.443 ± 0.12 | -0.398 ± 0.21
47 | UCUCAGCAAUAUUACGCAUU | -0.39 ± 0.11 | -1.55 ± 0.15
48 | UGUAAGCAAUAUUACGCAAC | -3.15 ± 0.31 | -1.79 ± 0.29
49 | CACGAGCAAUAUUACGAAGG | -3.2 ± 0.19 | -2.01 ± 0.26
50 | CCGCAGCAAUAUUACGCCGU | -3.34 ± 0.27 | -2.26 ± 0.22

Row | Sequence | self-splicing fitness (ln) (30 °C) | self-splicing fitness (ln) (37 °C)
51 | CACAAGCAAUAUUACGAUCC | -2.35 ± 0.21 | -1.45 ± 0.23
52 | AGGCAGCAAUAUUACGGCGC | -1.13 ± 0.11 | 0.292 ± 0.18
53 | AAUUAGCAAUAUUACGUCUC | -0.875 ± 0.12 | -0.478 ± 0.16
54 | GUCCAGCAAUAUUACGGGUA | -0.764 ± 0.061 | 0.14 ± 0.066
55 | AAUAAGCAAUAUUACGAAUC | -2.45 ± 0.21 | -0.866 ± 0.23
56 | AUCAAGCAAUAUUACGUCAU | -2.05 ± 0.088 | -1.45 ± 0.088
57 | ACCGAGCAAUAUUACGUACC | -3.88 ± 0.33 | -2.37 ± 0.44
58 | GUCUAGCAAUAUUACGAUUC | -0.168 ± 0.094 | 0.284 ± 0.1
59 | GAGUAGCAAUAUUACGAAAC | -2.82 ± 0.32 | -2.56 ± 0.27
60 | UAUAAGCAAUAUUACGCGGU | -3.64 ± 0.26 | -3.54 ± 0.34
61 | UUUAAGCAAUAUUACGGCCC | 0.344 ± 0.32 | –
62 | CCAGAGCAAUAUUACGAGUC | -2 ± 0.19 | -1.69 ± 0.28
63 | GAGCAGCAAUAUUACGGUCU | -0.727 ± 0.12 | -0.857 ± 0.14
64 | GGAUAGCAAUAUUACGUUCA | -0.502 ± 0.1 | -0.00255 ± 0.15
65 | GGGCAGCAAUAUUACGGUAC | -1.73 ± 0.097 | -0.144 ± 0.1
66 | AAUAAGCAAUAUUACGCAGU | -3.08 ± 0.22 | -2.04 ± 0.19
67 | GAGUAGCAAUAUUACGAGAU | -4.02 ± 0.29 | -2.51 ± 0.28
68 | GAGAAGCAAUAUUACGAUUA | -0.739 ± 0.099 | 0.245 ± 0.081
69 | ACAAAGCAAUAUUACGCCUA | -1.61 ± 0.13 | -1.32 ± 0.12
70 | AACCAGCAAUAUUACGGUCU | -0.594 ± 0.048 | -0.249 ± 0.066
71 | AUGUAGCAAUAUUACGCCUA | -0.493 ± 0.17 | 0.198 ± 0.23
72 | GCAAAGCAAUAUUACGGCGG | -1.18 ± 0.13 | -2.07 ± 0.2
73 | CGGAAGCAAUAUUACGUGUG | -1.38 ± 0.051 | -0.291 ± 0.067
74 | CGCUAGCAAUAUUACGAAGA | -2.12 ± 0.46 | –
75 | GGAGAGCAAUAUUACGAAAG | -2.26 ± 0.26 | –

Row | Sequence | self-splicing fitness (ln) (30 °C) | self-splicing fitness (ln) (37 °C)
76 | UCUCAGCAAUAUUACGCACA | -1.72 ± 0.19 | -0.264 ± 0.15
77 | AUCUAGCAAUAUUACGCAGU | -2.53 ± 0.18 | -2.09 ± 0.2
78 | UGGAAGCAAUAUUACGCAUC | – | -1.1 ± 0.3
79 | AGUCAGCAAUAUUACGGUCC | -0.805 ± 0.096 | 0.201 ± 0.13
80 | UAGGAGCAAUAUUACGGAAU | -4.06 ± 0.36 | -2.51 ± 0.33
81 | ACGUAGCAAUAUUACGCGUG | -1.73 ± 0.094 | -0.962 ± 0.11
82 | AAACAGCAAUAUUACGUCGA | -0.86 ± 0.065 | -0.774 ± 0.073
83 | ACUCAGCAAUAUUACGAGUG | -1.59 ± 0.081 | -0.296 ± 0.11
84 | UUAAAGCAAUAUUACGAGCG | -0.119 ± 0.086 | 0.287 ± 0.12
85 | AAUUAGCAAUAUUACGUCUA | -0.734 ± 0.087 | -0.256 ± 0.093
86 | ACUUAGCAAUAUUACGGCGU | -0.204 ± 0.088 | 0.491 ± 0.13
87 | UAGAAGCAAUAUUACGCCUA | -0.42 ± 0.13 | 0.0572 ± 0.14
88 | CACCAGCAAUAUUACGUAUC | -3.55 ± 0.14 | -2.99 ± 0.19
89 | CGAGAGCAAUAUUACGCAGG | – | -1.63 ± 0.17
90 | CUUAAGCAAUAUUACGACAA | -2.75 ± 0.41 | -2.98 ± 0.34
91 | GACUAGCAAUAUUACGAGAC | -3.56 ± 0.43 | -1.76 ± 0.27
92 | AGACAGCAAUAUUACGUGCG | -0.833 ± 0.077 | -0.653 ± 0.083
93 | CGCAAGCAAUAUUACGCAAG | -2.84 ± 0.31 | -2.2 ± 0.31
94 | ACGUAGCAAUAUUACGAAGA | -2.85 ± 0.41 | -0.644 ± 0.16
95 | GGAAAGCAAUAUUACGUUGA | -2.31 ± 0.081 | -1.27 ± 0.084
96 | AGACAGCAAUAUUACGGCUA | -0.252 ± 0.08 | -0.286 ± 0.083
97 | GAGGAGCAAUAUUACGGAGC | – | -0.748 ± 0.26
98 | UUAAAGCAAUAUUACGCUGC | -2.18 ± 0.15 | -2.71 ± 0.38
99 | CGGUAGCAAUAUUACGACUG | -2.54 ± 0.28 | -1.86 ± 0.32
